To fix the notation:
T1: factor XIIIa (Homo sapiens, UniProt P00488)
T1 sequence (P00488 39-732 limits assumed): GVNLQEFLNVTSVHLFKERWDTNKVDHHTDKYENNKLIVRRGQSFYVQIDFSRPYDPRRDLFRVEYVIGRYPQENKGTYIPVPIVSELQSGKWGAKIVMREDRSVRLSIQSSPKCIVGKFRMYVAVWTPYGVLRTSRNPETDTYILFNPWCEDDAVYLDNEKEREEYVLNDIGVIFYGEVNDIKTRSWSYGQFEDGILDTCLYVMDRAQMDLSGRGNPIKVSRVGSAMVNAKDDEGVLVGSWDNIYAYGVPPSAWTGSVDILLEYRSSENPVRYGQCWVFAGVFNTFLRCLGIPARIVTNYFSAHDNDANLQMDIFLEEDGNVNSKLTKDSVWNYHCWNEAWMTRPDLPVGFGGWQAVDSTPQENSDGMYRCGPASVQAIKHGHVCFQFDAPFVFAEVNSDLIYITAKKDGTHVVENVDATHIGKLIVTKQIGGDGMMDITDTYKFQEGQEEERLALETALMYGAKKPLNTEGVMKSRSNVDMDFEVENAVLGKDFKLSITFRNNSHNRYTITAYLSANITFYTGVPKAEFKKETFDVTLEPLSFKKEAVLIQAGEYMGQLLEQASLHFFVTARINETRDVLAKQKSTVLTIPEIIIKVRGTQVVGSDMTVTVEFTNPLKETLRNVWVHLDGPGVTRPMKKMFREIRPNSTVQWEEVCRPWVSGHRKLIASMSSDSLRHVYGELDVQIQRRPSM

B1: recombinant tridegin polypeptide expressed in the yeast Pichia pastoris: tridegin polypeptide encoded by SEQ ID No. 90, secreted from Pichia pastoris; main product lacks the 11 C-terminal residues (protein)
chain: MRFPSIFTAVLFAASSALAAPVNTTTEDETAQIPAEAVIGYSDLEGDFDVAVLPFSNSTNNGLLFINTTIASIAAKEEGVSLEKRKLLPCKEWHQGIPNPRCWCGADLECAQDQYCAFIPQCRPRSELIKPMDDIYQRPVEFPNLPLKPREESLEHHHHHH
modifications: main product lacks 11 C-terminal residues
notes: main product lacks the 11 C-terminal residues
B2: H10A: modified tridegin, XnY mutation of SEQ ID No. 1, expressed in Escherichia coli (protein)
chain: MKLLPCKEWAQGIPNPRCWCGADLECAQDQYCAFIPQCRPRSELIKPMDDIYQRPVEFPNLPLKPREE
B3: F34A: modified tridegin, XnY mutation of SEQ ID No. 1, expressed in Escherichia coli (protein)
chain: MKLLPCKEWHQGIPNPRCWCGADLECAQDQYCAAIPQCRPRSELIKPMDDIYQRPVEFPNLPLKPREE
B4: N60A: modified tridegin, XnY mutation of SEQ ID No. 1, expressed in Escherichia coli (protein)
chain: MKLLPCKEWHQGIPNPRCWCGADLECAQDQYCAFIPQCRPRSELIKPMDDIYQRPVEFPALPLKPREE
B5: K07A: modified tridegin, XnY mutation of SEQ ID No. 1, expressed in Escherichia coli (protein)
chain: MKLLPCAEWHQGIPNPRCWCGADLECAQDQYCAFIPQCRPRSELIKPMDDIYQRPVEFPNLPLKPREE
B6: Y31A: modified tridegin, XnY mutation of SEQ ID No. 1, expressed in Escherichia coli (protein)
chain: MKLLPCKEWHQGIPNPRCWCGADLECAQDQACAFIPQCRPRSELIKPMDDIYQRPVEFPNLPLKPREE
B7: I45A: modified tridegin, XnY mutation of SEQ ID No. 1, expressed in Escherichia coli (protein)
chain: MKLLPCKEWHQGIPNPRCWCGADLECAQDQYCAFIPQCRPRSELAKPMDDIYQRPVEFPNLPLKPREE
B8: R39A: modified tridegin, XnY mutation of SEQ ID No. 1, expressed in Escherichia coli (protein)
chain: MKLLPCKEWHQGIPNPRCWCGADLECAQDQYCAFIPQCAPRSELIKPMDDIYQRPVEFPNLPLKPREE
B9: G12A: modified tridegin, XnY mutation of SEQ ID No. 1, expressed in Escherichia coli (protein)
chain: MKLLPCKEWHQAIPNPRCWCGADLECAQDQYCAFIPQCRPRSELIKPMDDIYQRPVEFPNLPLKPREE
B10: L24A: modified tridegin, XnY mutation of SEQ ID No. 1, expressed in Escherichia coli (protein)
chain: MKLLPCKEWHQGIPNPRCWCGADAECAQDQYCAFIPQCRPRSELIKPMDDIYQRPVEFPNLPLKPREE
B11: D50A: modified tridegin, XnY mutation of SEQ ID No. 1, expressed in Escherichia coli (protein)
chain: MKLLPCKEWHQGIPNPRCWCGADLECAQDQYCAFIPQCRPRSELIKPMDAIYQRPVEFPNLPLKPREE
B12: K02A: modified tridegin, XnY mutation of SEQ ID No. 1, expressed in Escherichia coli (protein)
chain: MALLPCKEWHQGIPNPRCWCGADLECAQDQYCAFIPQCRPRSELIKPMDDIYQRPVEFPNLPLKPREE
B13: M48A: modified tridegin, XnY mutation of SEQ ID No. 1, expressed in Escherichia coli (protein)
chain: MKLLPCKEWHQGIPNPRCWCGADLECAQDQYCAFIPQCRPRSELIKPADDIYQRPVEFPNLPLKPREE
B14: F58A: modified tridegin, XnY mutation of SEQ ID No. 1, expressed in Escherichia coli (protein)
chain: MKLLPCKEWHQGIPNPRCWCGADLECAQDQYCAFIPQCRPRSELIKPMDDIYQRPVEAPNLPLKPREE
B15: P65A: modified tridegin, XnY mutation of SEQ ID No. 1, expressed in Escherichia coli (protein)
chain: MKLLPCKEWHQGIPNPRCWCGADLECAQDQYCAFIPQCRPRSELIKPMDDIYQRPVEFPNLPLKAREE
B16: D50A, P55L: spontaneously arising double mutant of tridegin SEQ ID No. 1, expressed in Escherichia coli (protein)
chain: MKLLPCKEWHQGIPNPRCWCGADLECAQDQYCAFIPQCRPRSELIKPMDAIYQRLVEFPNLPLKPREE
B17: C18A: tridegin modified by replacement of a cysteine residue, expressed in Escherichia coli (protein)
chain: MKLLPCKEWHQGIPNPRAWCGADLECAQDQYCAFIPQCRPRSELIKPMDDIYQRPVEFPNLPLKPREE
B18: C06A: tridegin modified by replacement of a cysteine residue, expressed in Escherichia coli (protein)
chain: MKLLPAKEWHQGIPNPRCWCGADLECAQDQYCAFIPQCRPRSELIKPMDDIYQRPVEFPNLPLKPREE

For one experiment, the target named is T1, factor XIIIa. The experiment can be described thus: biochemical. It is filed as biochemical.
Conditions: not given
The method, then:
The assay is based on factor XIII being activated to form factor XIIIa by thrombin which is present in the reagents. Factor XIIIa links a specific peptide substrate to glycine ethyl ester with ammonium ions being released. The latter are determined in an enzyme reaction which proceeds in parallel. The extinction at 340 nm was used to measure the decrease in NADH. For the measurement, peptides were present in 50% acetonitrile in a stock concentration of 5 mM. The NADH and detection reagents which were supplied by the manufacturer were dissolved in 3 ml of water, with the activator reagent subsequently being dissolved in 3 ml of NADH reagent. For use, the activator and detection reagents were mixed in a ratio of 1:1. In order to carry out the measurement in microtiter plate format, 100 μl of sample (inhibitor or control buffer), 25 μl of factor XIII (10 U/ml) and 150 μl of working reagent were mixed. The measurement was carried out continuously for 20 min at 340 nm, and at 37° C., in a microtiter plate photometer. For the evaluation, the differences in the values measured after 16 and 20 min were compared.
The relative inhibitory effect (%) was determined at a final variant concentration of 5.45 μM. The inhibitory effect of the recombinant tridegin polypeptide was normalized to 100% (at 5.45 μM).
The above-described Berichrom® assay was used to determine the relative inhibitory effect (%) at a final concentration of the peptides of 7.27 μM. The inhibitory effect of the recombinant tridegin polypeptide, at a final concentration of 7.27 μM, was normalized to 100%.
The relative inhibitory effect (%) was determined at a final variant concentration of 5.45 μM. The inhibitory effect of the recombinant wild-type tridegin poly-peptide (at 5.45 μM) was normalized to 100%. The oligonucleotides which were used to produce the abovementioned variants are also specified in the table.
For B1, the “inhibitory activity compared with wild-type tridegin polypeptide expressed in Escherichia coli” value is “even more effective”.

Still in this experiment, the particulars now being: Table 2; final variant concentration 5.45 μM; recombinant tridegin polypeptide normalized to 100%.
As for B2, the “Relative inhibitory effect (%)” value turned out to be 87%.
As for B3, the “Relative inhibitory effect (%)” value worked out at 96%.
The same measure, in the same setting: in the case of B4 it was 68%; in that of B5, 90%.
For B6, the “Relative inhibitory effect (%)” value is 69%.
Same read-out and setting: the value for B7 was 115%; that for B8 was 49%; that for B9 was 97%.
B10: the “Relative inhibitory effect (%)” value is 92%.
Turning to B11, the “Relative inhibitory effect (%)” value is on record as 53%.
For B12, the “Relative inhibitory effect (%)” value is reported as 113%.
Turning to B13, the “Relative inhibitory effect (%)” value was found to be 91%.
On to B14, for which the “Relative inhibitory effect (%)” value is 60%.
Regarding B15, the “Relative inhibitory effect (%)” value was 51%.
Take B16: the “Relative inhibitory effect (%)” value came to 84%.

The experiment is the same for the next values; noted with them: Table 3; final peptide concentration 7.27 μM; recombinant tridegin polypeptide at 7.27 μM normalized to 100%.
Regarding “Ac-DDIYQRPVEFPNLPLKPREE-NH2 [SEQ ID No. 26]”, the relative inhibitory effect (% of recombinant tridegin) at 7.27 µM stood at 35.6%.
For the molecule “Ac-PMDDIYQRPVEFPNLPLKPR-NH2 [SEQ ID No. 25]”, the relative inhibitory effect (% of recombinant tridegin) at 7.27 µM was 42.1%.
The same measure, in the same setting: the value for “Ac-IKPMDDIYQRPVEFPNLPLK-NH2 [SEQ ID No. 24]” was 43.5%.

The same experiment, now with this note: Table 4, Cys variants; final variant concentration 5.45 μM; wild-type tridegin polypeptide normalized to 100%.
Turning to B17, the “Relative inhibitory effect (%)” value amounted to 93%.
Still for that read-out and setting: the value for B18 was 72%.

Source of the values: patent US20090226415A1, “MODIFIED TRIDEGINS, PRODUCTION AND USE THEREOF AS TRANSGLUTAMINASE INHIBITORS” (priority 2001, published 2009).
